Assay results taken from US6780850.

Legend:
[1] = biological target: T1, alpha-thrombin (active site blocked with fluorescein-PPACK) (Homo sapiens, UniProt P00734;P00734 P00734:328-363,P00734:364-622); test: fluorometric titration, 492/522 nm, 100 nM thrombin, 20 mM Tris, 150 mM NaCl, pH 7.4; exosite 1
[2] = biological target: T1, alpha-thrombin (active site blocked …); test: fluorometric titration, 20 mM Tris, 150 mM NaCl, pH 7.4; exosite 1
thrombin (IIa), active [3] = biological target: T2, thrombin (IIa), active (UniProt P00734;P00734 P00734:328-363,P00734:364-622); test: inhibition; inhibition of coagulation
[4] = biological target: T1, alpha-thrombin (active site blocked …); test: fluorometric titration; duplicate measurement gave 99 nM; 20 mM Tris, 150 mM NaCl, pH 7.4
[5] = biological target: T1, alpha-thrombin (active site blocked …); test: fluorometric titration, 20 mM Tris, 150 mM NaCl, pH 7.4; exosite 2
thrombin (IIa), active [6] = biological target: T2, thrombin (IIa), active; test: inhibition; kD in the hydrolysis of Chromozym-thrombin
[7] = biological target: T1, alpha-thrombin (active site blocked …); test: fluorometric titration; duplicate measurement gave 110 nM; 20 mM Tris, 150 mM NaCl, pH 7.4

## GGTTGGTGTGGTTGG (ssDNA) [ODN 1a]
[1]
  Kd: 45 nM

## GGTTGGTGTGGTTGG (ssDNA, 3'-biotin (biotin TEG)) [ODN 1e]
[2]
  Kd: 55 nM

## GGTTGGTGTGGTTGG (ssDNA, 3'-biotin-streptavidin) [ODN 1f]
Thrombin (IIa), active [3]
  Ki: ~100 nM
[4]
  Kd: 41 nM

## AGTCCGTGGTAGGGCAGGTTGGGGTGACT (ssDNA) [ODN 2a]
[5]
  Kd: 16.5 nM

## AGTCCGTGGTAGGGCAGGTTGGGGTGACT (ssDNA, 3'-biotin (biotin TEG)) [ODN 2e]
[5]
  Kd: 85 nM

## AGTCCGTGGTAGGGCAGGTTGGGGTGACT (ssDNA, 3'-biotin-streptavidin) [ODN 2f]
Thrombin (IIa), active [6]
  Kd: 10.2 nM
[7]
  Kd: 89 nM
